Measurements: US20110142868A1 (CHIRALIX B V, published 2011)
Numbered stars: 1 amine (or outer) side, 2 acyl side, 3 side chain; on linkers, the order of the positions; unused ones are H or OH. Square brackets hold non-standard residues; d marks the D form. Orn(CA) = ornithine chloroamidine, O(CA), N=C(CCl)NCCC[C@H](N[*:1])C(=O)[*:2]; Orn(fluoroacetimidoyl) = N=C(CF)NCCC[C@H](N)C(=O)O

Legend:
recombinant human PAD2 = recombinant human PAD2 (human, UniProt Q9Y2J8 1-665); test: cell-based or functional assay
Sequence of recombinant human PAD2 (Q9Y2J8 whole entry): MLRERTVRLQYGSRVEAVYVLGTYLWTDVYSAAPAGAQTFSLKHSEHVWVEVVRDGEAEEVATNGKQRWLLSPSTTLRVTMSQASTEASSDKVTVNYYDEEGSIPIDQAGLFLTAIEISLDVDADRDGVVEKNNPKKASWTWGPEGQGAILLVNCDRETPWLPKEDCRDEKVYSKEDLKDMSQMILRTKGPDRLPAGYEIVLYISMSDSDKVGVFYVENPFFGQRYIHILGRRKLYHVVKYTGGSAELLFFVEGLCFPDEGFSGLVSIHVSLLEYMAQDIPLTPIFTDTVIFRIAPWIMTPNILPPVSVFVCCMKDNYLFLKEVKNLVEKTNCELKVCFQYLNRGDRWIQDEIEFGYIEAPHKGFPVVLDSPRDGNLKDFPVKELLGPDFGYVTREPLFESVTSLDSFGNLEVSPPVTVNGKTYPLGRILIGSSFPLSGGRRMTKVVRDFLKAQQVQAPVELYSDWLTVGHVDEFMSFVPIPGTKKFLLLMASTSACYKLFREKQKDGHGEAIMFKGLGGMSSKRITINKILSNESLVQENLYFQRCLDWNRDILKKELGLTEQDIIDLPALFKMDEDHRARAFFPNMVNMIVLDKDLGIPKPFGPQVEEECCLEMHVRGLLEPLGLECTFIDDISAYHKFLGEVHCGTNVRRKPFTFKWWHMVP

recombinant human PAD4 = recombinant human PAD4 (human, UniProt Q9UM07 1-663); test: cell-based or functional assay
Sequence of recombinant human PAD4 (Q9UM07 whole entry): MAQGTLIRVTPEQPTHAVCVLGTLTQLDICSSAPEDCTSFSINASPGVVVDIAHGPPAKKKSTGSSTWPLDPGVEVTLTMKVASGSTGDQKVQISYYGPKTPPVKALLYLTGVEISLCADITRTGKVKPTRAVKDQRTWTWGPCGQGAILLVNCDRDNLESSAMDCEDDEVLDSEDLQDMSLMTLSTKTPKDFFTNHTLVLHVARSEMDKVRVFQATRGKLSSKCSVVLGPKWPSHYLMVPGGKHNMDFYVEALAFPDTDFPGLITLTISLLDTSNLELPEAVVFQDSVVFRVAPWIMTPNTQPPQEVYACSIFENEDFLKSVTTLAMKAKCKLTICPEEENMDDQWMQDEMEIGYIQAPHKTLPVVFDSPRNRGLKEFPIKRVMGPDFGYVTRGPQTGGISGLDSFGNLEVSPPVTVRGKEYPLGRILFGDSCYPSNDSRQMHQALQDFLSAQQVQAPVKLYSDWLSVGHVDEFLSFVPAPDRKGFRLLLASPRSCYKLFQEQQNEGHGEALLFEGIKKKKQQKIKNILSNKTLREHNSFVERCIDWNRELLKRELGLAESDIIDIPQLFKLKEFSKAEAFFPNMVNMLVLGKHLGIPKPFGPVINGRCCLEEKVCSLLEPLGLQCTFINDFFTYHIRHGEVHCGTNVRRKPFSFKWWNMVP

Binder	conversion of 0708-30 by PAD2, 10 µM inhibitor (recombinant human PAD2) [%]	conversion of 0708-30 by PAD2, 50 µM inhibitor (recombinant human PAD2) [%]	conversion of 0708-30 by PAD2, 100 µM inhibitor (recombinant human PAD2) [%]	conversion of 0708-30 by PAD4, 10 µM inhibitor (recombinant human PAD4) [%]	conversion of 0708-30 by PAD4, 50 µM inhibitor (recombinant human PAD4) [%]	conversion of 0708-30 by PAD4, 100 µM inhibitor (recombinant human PAD4) [%]
Ac-DSKKHD[Orn(fluoroacetimidoyl)]DFLYSD-NH2 (SMILES CC(=O)N[C@@H](CC(=O)O)C(=O)N[C@@H](CO)C(=O)N[C@@H](CCCCN)C(=O)N[C@@H](CCCCN)C(=O)N[C@@H](Cc1c[nH]cn1)C(=O)N[C@@H](CC(=O)O)C(=O)N[C@@H](CCCNC(=N)CF)C(=O)N[C@@H](CC(=O)O)C(=O)N[C@@H](Cc1ccccc1)C(=O)N[C@@H](CC(C)C)C(=O)N[C@@H](Cc1ccc(O)cc1)C(=O)N[C@@H](CO)C(=O)N[C@@H](CC(=O)O)C(N)=O) [0741-06FA]	73	42	25	74	43	27
Ac-DSHKFD[Orn(fluoroacetimidoyl)]DFIYSD-NH2 (SMILES CC[C@H](C)[C@H](NC(=O)[C@H](Cc1ccccc1)NC(=O)[C@H](CC(=O)O)NC(=O)[C@H](CCCNC(=N)CF)NC(=O)[C@H](CC(=O)O)NC(=O)[C@H](Cc1ccccc1)NC(=O)[C@H](CCCCN)NC(=O)[C@H](Cc1c[nH]cn1)NC(=O)[C@H](CO)NC(=O)[C@H](CC(=O)O)NC(C)=O)C(=O)N[C@@H](Cc1ccc(O)cc1)C(=O)N[C@@H](CO)C(=O)N[C@@H](CC(=O)O)C(N)=O) [0741-05FA]	54	24	15	55	22	14
Ac-FFDSHKLH[Orn(fluoroacetimidoyl)]EWMWSD-NH2 (SMILES CSCC[C@H](NC(=O)[C@H](Cc1c[nH]c2ccccc12)NC(=O)[C@H](CCC(=O)O)NC(=O)[C@H](CCCNC(=N)CF)NC(=O)[C@H](Cc1c[nH]cn1)NC(=O)[C@H](CC(C)C)NC(=O)[C@H](CCCCN)NC(=O)[C@H](Cc1c[nH]cn1)NC(=O)[C@H](CO)NC(=O)[C@H](CC(=O)O)NC(=O)[C@H](Cc1ccccc1)NC(=O)[C@H](Cc1ccccc1)NC(C)=O)C(=O)N[C@@H](Cc1c[nH]c2ccccc12)C(=O)N[C@@H](CO)C(=O)N[C@@H](CC(=O)O)C(N)=O) [0741-04FA]	62	24	14	64	28	14
Ac-FFDSKHFD[Orn(CA)]EWIWSD-NH2 (SMILES CC[C@H](C)[C@H](NC(=O)[C@H](Cc1c[nH]c2ccccc12)NC(=O)[C@H](CCC(=O)O)NC(=O)[C@H](CCCNC(=N)CCl)NC(=O)[C@H](CC(=O)O)NC(=O)[C@H](Cc1ccccc1)NC(=O)[C@H](Cc1c[nH]cn1)NC(=O)[C@H](CCCCN)NC(=O)[C@H](CO)NC(=O)[C@H](CC(=O)O)NC(=O)[C@H](Cc1ccccc1)NC(=O)[C@H](Cc1ccccc1)NC(C)=O)C(=O)N[C@@H](Cc1c[nH]c2ccccc12)C(=O)N[C@@H](CO)C(=O)N[C@@H](CC(=O)O)C(N)=O) [0741-01CA]	69	38	23	63	31	17
Ac-FFDSHKLH[Orn(CA)]EWMWSD-NH2 (SMILES CSCC[C@H](NC(=O)[C@H](Cc1c[nH]c2ccccc12)NC(=O)[C@H](CCC(=O)O)NC(=O)[C@H](CCCNC(=N)CCl)NC(=O)[C@H](Cc1c[nH]cn1)NC(=O)[C@H](CC(C)C)NC(=O)[C@H](CCCCN)NC(=O)[C@H](Cc1c[nH]cn1)NC(=O)[C@H](CO)NC(=O)[C@H](CC(=O)O)NC(=O)[C@H](Cc1ccccc1)NC(=O)[C@H](Cc1ccccc1)NC(C)=O)C(=O)N[C@@H](Cc1c[nH]c2ccccc12)C(=O)N[C@@H](CO)C(=O)N[C@@H](CC(=O)O)C(N)=O) [0741-04CA]	69	47	50	68	55	26
Ac-FFDSHKWH[Orn(CA)]DFFYSD-NH2 (SMILES CC(=O)N[C@@H](Cc1ccccc1)C(=O)N[C@@H](Cc1ccccc1)C(=O)N[C@@H](CC(=O)O)C(=O)N[C@@H](CO)C(=O)N[C@@H](Cc1c[nH]cn1)C(=O)N[C@@H](CCCCN)C(=O)N[C@@H](Cc1c[nH]c2ccccc12)C(=O)N[C@@H](Cc1c[nH]cn1)C(=O)N[C@@H](CCCNC(=N)CCl)C(=O)N[C@@H](CC(=O)O)C(=O)N[C@@H](Cc1ccccc1)C(=O)N[C@@H](Cc1ccccc1)C(=O)N[C@@H](Cc1ccc(O)cc1)C(=O)N[C@@H](CO)C(=O)N[C@@H](CC(=O)O)C(N)=O) [0741-02CA]	67	32	18	63	31	19
Ac-FFDSKHFD[Orn(fluoroacetimidoyl)]EWIWSD-NH2 (SMILES CC[C@H](C)[C@H](NC(=O)[C@H](Cc1c[nH]c2ccccc12)NC(=O)[C@H](CCC(=O)O)NC(=O)[C@H](CCCNC(=N)CF)NC(=O)[C@H](CC(=O)O)NC(=O)[C@H](Cc1ccccc1)NC(=O)[C@H](Cc1c[nH]cn1)NC(=O)[C@H](CCCCN)NC(=O)[C@H](CO)NC(=O)[C@H](CC(=O)O)NC(=O)[C@H](Cc1ccccc1)NC(=O)[C@H](Cc1ccccc1)NC(C)=O)C(=O)N[C@@H](Cc1c[nH]c2ccccc12)C(=O)N[C@@H](CO)C(=O)N[C@@H](CC(=O)O)C(N)=O) [0741-01FA]	69	29	14	63	24	15
Ac-FFDSHKFD[Orn(CA)]DFIYSD-NH2 (SMILES CC[C@H](C)[C@H](NC(=O)[C@H](Cc1ccccc1)NC(=O)[C@H](CC(=O)O)NC(=O)[C@H](CCCNC(=N)CCl)NC(=O)[C@H](CC(=O)O)NC(=O)[C@H](Cc1ccccc1)NC(=O)[C@H](CCCCN)NC(=O)[C@H](Cc1c[nH]cn1)NC(=O)[C@H](CO)NC(=O)[C@H](CC(=O)O)NC(=O)[C@H](Cc1ccccc1)NC(=O)[C@H](Cc1ccccc1)NC(C)=O)C(=O)N[C@@H](Cc1ccc(O)cc1)C(=O)N[C@@H](CO)C(=O)N[C@@H](CC(=O)O)C(N)=O) [0741-03CA]	57	49	23	62	24	14
